These results are taken from patent publication US5609876, “Peptide vaccines and associated methods for protection against feline leukemia virus” (University of Pittsburgh of the Commonwealth System of …, dated 1997).

No end group written: not given here.

For the experiment, the target named is T1, PRN4358 (feline leukemia virus (FeLV 61-E gp70)).
T1 peptide: VAPTTVGPKRIGTGDR-NH2
Nature of the experiment: 1H-NMR of an equimolar (5 mM) mixture of PRN42 and PRN4358, amide proton protection in D2O.

B1: PRN42 (peptide)
peptide: TPPQAMGPNLVLPDQKPPSRQSQTGSKVATQRPQTNESAPRS-NH2
Turning to B1, the binding result is reported as “binds”.
